Consider 1 substance from publication PMC5374589.

The target of this assay is Murine PD-L1 (murine) (UniProt Q9EP73).
Sequence of UniProt Q9EP73 (Q9EP73 19-290): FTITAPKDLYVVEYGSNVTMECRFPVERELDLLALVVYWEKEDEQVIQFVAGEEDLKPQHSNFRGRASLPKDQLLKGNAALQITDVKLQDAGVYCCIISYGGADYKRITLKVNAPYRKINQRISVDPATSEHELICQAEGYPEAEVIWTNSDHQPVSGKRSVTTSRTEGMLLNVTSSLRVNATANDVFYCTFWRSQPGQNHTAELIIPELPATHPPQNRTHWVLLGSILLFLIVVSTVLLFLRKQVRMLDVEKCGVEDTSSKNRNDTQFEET

On to PD-1-CD28 fusion receptor, for which the T cell-induced lysis of EG7-PD-L1 target cells in co-culture with PD-1-CD28 fusion receptor transduced OVA-specific CD8+ T cells was found to be 3 fold.
